Experimental findings from patent US20210309745A1 (TAYU HUAXIA BIOTECH MEDICAL GROUP, published 2021) are described below.

This test addresses hPD-L1 (antigen of the Fortebio Octet assay) (human, UniProt Q9NZQ7 19-238, limits assumed). The experiment in a line: BLI, Fortebio Octet; format not stated. An excerpt:
The anti-hPD-L1 scFv-hFc Wt and scFv-hFc Mt antibodies were identified by SDS Page Gel […]. […] The binding affinities of the scFv-hFc antibodies to hPD-L1, as compared to that of the parental antibody were examined by FACS and the results are shown in FIG. 7. […] The binding affinities and kinetics of the scFv-hFc antibodies (scFv-hFc Wt and scFv-hFc Mt) to hPD-L1, as compared to that of the parental antibody (anti-PD-L1 IgG1), were further analyzed using the Fortebio Octet system.
A general note: In BLI a coated tip is dipped into the sample, and binding shifts an interference pattern.

Chain of hPD-L1 (antigen of the Fortebio Octet assay) (Q9NZQ7 19-238 limits assumed): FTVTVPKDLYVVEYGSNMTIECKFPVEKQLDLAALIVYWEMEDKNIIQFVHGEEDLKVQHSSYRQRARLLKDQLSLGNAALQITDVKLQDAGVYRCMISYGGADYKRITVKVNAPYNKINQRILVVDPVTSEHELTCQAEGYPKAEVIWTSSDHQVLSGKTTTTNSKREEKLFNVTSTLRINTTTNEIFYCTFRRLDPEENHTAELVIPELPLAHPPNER

B1: anti-PD-L1 IgG1 (parental antibody of Example 3) (antibody, V domains shown)
VH: EVQLQQSGAELVKPGASVKLSCTASGFNIKDTYMYWVKQRPEQGLECIGRIDPANDNTKYDPKFQGKATITADTSSNTAYVQLASLTSEDTAVYYCARAKNLLNYFDYWGQGTTLTVSS
VL: DIQMTQSPSSLSASLGERVTLSCRASQEISGYLSWLQQKPDGTIKRLIYATSTLDSGVPKRFSGSRSGSDYSLTISSLESEDFADYYCLQYAIYPLTFGAGTKLELKR
notes: IgG1; also called parental control antibody
Regarding B1, the koff (commonly a measure of how fast the partners let go of each other) turned out to be 2.72e-05 s⁻¹.
